# Assay results: patent publication US20260193323
# Columns and labels:
# [1] = tested on: T1, recombinantly produced LEKTI Domain 6
# T1 sequence: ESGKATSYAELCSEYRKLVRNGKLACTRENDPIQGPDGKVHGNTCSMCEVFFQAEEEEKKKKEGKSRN
# [2] = tested on: T2, LEKTI Domain 6 (ct His6 tag)
# T2 sequence: T1 sequence
substance,measurement,setting,value
trypsin,"Trypsin activity (rate of change in the absorbance at 405 nm, L-BAPNA cleavage, per minute)",[1],LEKTI Domain 6 inhibited trypsin activity in vitro
same,"trypsin activity (L-BAPNA substrate, 405 nm)",[2],recombinantly produced LEKTI Domain 6 (ct His6 tag) inhibits trypsin in vitro compared to LEKTI domains 10-15
